How the values were obtained:
Test in all cases: pull-down on anti-FLAG beads, anti-c-myc blot, Expi293F cells
[1] = biological target: T1, c-Myc-Gli2 (418-594aa) ZF2-mut (H493A, R496A) (human, UniProt P10070 418-594)
T1 construct: also called Gli2 ZF-2 (H493A/R496A); not shown: c-myc tag from pCMV-BICEP-4 (MCS2)
T1 sequence (looked up): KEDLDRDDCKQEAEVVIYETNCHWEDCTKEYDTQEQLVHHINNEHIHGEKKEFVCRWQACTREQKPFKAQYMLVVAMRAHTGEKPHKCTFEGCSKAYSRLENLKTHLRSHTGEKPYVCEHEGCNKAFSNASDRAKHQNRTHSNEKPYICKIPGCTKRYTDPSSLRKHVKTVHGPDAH
Description: (§1) Immunoprecipitation (IP) using anti-FLAG magnetic beads. Input (cell lysate), FT (flow through), wash and beads samples were immunoblotted (IB) with anti c-Myc antibody to detect Gli2. […] The blots are representative images of a minimum of three repeats. Gli2-ZF mutants are as follows: ZF2-mut (H493A, R496A), ZF3-mut (H503A, R516A, K521A), ZF4-mut (R550A, K552A, R556A). Kif7-CC mutants are as follows: S1-mut (E500A, E501A, E502A, D505A), S2-mut (E511A, E515A), S3-mut1 (E526A, E529A) and S3-mut2 (E530A, R535A).
(§2) To narrow down the residues that participate in binding, we analyzed the model of the Kif7-SCC:Gli2-ZF complex using PDBsum server (De Beer et al., Nucleic acids research, 42, D292-D296, 2014). We performed alanine scanning mutagenesis of the charged residues on Gli2-ZF that came up as part of the binding interface in the PDBsum analysis and analyzed their binding with pull-down assay (FIG. 3D). […] We systematically mutated the residues to alanine and performed the pull-down assay with Gli2-ZF.

[2] = biological target: T2, c-Myc-Gli2 (418-594aa) ZF3-mut (H503A, R516A, K521A) (human, UniProt P10070 418-594)
T2 construct: also called ZF-3 (H503A/R516A/K521A); not shown: c-myc tag from pCMV-BICEP-4 (MCS2)
T2 sequence (looked up): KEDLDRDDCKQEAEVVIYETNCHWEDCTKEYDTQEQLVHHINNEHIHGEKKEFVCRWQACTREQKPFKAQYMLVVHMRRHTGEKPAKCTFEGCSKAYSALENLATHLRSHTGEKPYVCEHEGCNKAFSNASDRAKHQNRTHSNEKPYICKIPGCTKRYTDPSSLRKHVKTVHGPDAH
Description: as §1, §2

c-Myc-Gli2 (418-594aa) = biological target: T3, c-Myc-Gli2 (418-594aa) (human, UniProt P10070 418-594)
T3 construct: Expressed in Expi293F cells for the pull-down; also called Gli2-ZF (in the pull-down); not shown: c-myc tag from pCMV-BICEP-4 (MCS2), N-terminal by the name
T3 sequence (looked up): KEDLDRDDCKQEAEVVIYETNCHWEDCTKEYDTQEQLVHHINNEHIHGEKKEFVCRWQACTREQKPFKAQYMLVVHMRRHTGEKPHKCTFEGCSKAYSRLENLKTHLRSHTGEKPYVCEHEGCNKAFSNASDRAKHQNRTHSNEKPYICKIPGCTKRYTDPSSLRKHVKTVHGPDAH
Description: as §1, §2

Binder | binding result [1] | binding result [2] | binding result (c-Myc-Gli2 (418-594aa))
FLAG-Kif7-CC (460-600aa) (other, Expressed in Expi293F cells for the pull-down; also called Kif7(460-600aa); not shown: FLAG tag from pCMV-BICEP-4 (MCS1), N-terminal by the name) PDSGIESASVEDQAAQGAGGRKEDEGAQQLLTLQNQVARLEEENRDFLAALEDAMEQYKLQSDRLREQQEEMVELRLRLELVRPGWGGPRLLNGLPPGSFVPRPHTAPLGGAHAHVLGMVPPACLPGDEVGSEQRGEQVTN | no binding | no binding | 
FLAG-Kif7-CC (460-600aa) S1-mut (E500A, E501A, E502A, D505A) (other, also called Kif7-CC S1; not shown: FLAG tag from pCMV-BICEP-4 (MCS1)) PDSGIESASVEDQAAQGAGGRKEDEGAQQLLTLQNQVARLAAANRAFLAALEDAMEQYKLQSDRLREQQEEMVELRLRLELVRPGWGGPRLLNGLPPGSFVPRPHTAPLGGAHAHVLGMVPPACLPGDEVGSEQRGEQVTN |  |  | no binding

— US20230374088A1 (GENERAL HOSPITAL, published 2023)
